# Assay results taken from patent US20230002480A1.
# How the values were obtained:
# Test in all cases: cell-based or functional assay
# [1] = target: HIV-1 Env of pseudovirus 0815.v3.c3 (HIV-1)
# [2] = target: HIV-1 Env of pseudovirus 1394C9G1(Rev-) (HIV-1)
# [3] = target: HIV-1 Env of pseudovirus 191084 B7-19 (HIV-1)
# [4] = target: HIV-1 Env of pseudovirus 231965.c01 (HIV-1)
# [5] = target: HIV-1 Env of pseudovirus 246F C1G (HIV-1)
# [6] = target: HIV-1 Env of pseudovirus 3016.v5.c45 (HIV-1)
# [7] = target: HIV-1 Env of pseudovirus 3365.v2.c2 (HIV-1)
# [8] = target: HIV-1 Env of pseudovirus 3817.v2.c59 (HIV-1)
# [9] = target: HIV-1 Env of pseudovirus 6480.v4.c25 (HIV-1)
# [10] = target: HIV-1 Env of pseudovirus 6811.v7.c18 (HIV-1)
# [11] = target: HIV-1 Env of pseudovirus 6952.v1.c20 (HIV-1)
# [12] = target: HIV-1 Env of pseudovirus 7030102001E5(Rev-) (HIV-1)
# [13] = target: HIV-1 Env of pseudovirus 89-F1_2_25 (HIV-1)
# [14] = target: HIV-1 Env of pseudovirus AC10.0.29 (HIV-1)
# [15] = target: HIV-1 Env of pseudovirus BF1266.431a (HIV-1)
# [16] = target: HIV-1 Env of pseudovirus BJOX010000.06.2 (HIV-1)
# [17] = target: HIV-1 Env of pseudovirus BJOX015000.11.5 (HIV-1)
# [18] = target: HIV-1 Env of pseudovirus BJOX025000.01.1 (HIV-1)
# [19] = target: HIV-1 Env of pseudovirus CAAN5342.A2 (HIV-1)
# [20] = target: HIV-1 Env of pseudovirus Ce703010054_2A2 (HIV-1)
# [21] = target: HIV-1 Env of pseudovirus Du172.17 (HIV-1)
# [22] = target: HIV-1 Env of pseudovirus Du422.1 (HIV-1)
# [23] = target: HIV-1 Env of pseudovirus HIV-16055-2.3 (HIV-1)
# [24] = target: HIV-1 Env of pseudovirus P0402_c2_11 (HIV-1)
# [25] = target: HIV-1 Env of pseudovirus Q23.17 (HIV-1)
# [26] = target: HIV-1 Env of pseudovirus R3265.c06 (HIV-1)
# [27] = target: HIV-1 Env of pseudovirus REJO4541.67 (HIV-1)
# [28] = target: HIV-1 Env of pseudovirus SC422661.8 (HIV-1)
# [29] = target: HIV-1 Env of pseudovirus T250-4 (HIV-1)
# [30] = target: HIV-1 Env of pseudovirus T278-50 (HIV-1)
# [31] = target: HIV-1 Env of pseudovirus THRO4156.18 (HIV-1)
# [32] = target: HIV-1 Env of pseudovirus WITO4160.33 (HIV-1)
# [33] = target: HIV-1 Env of pseudovirus X1193_c1 (HIV-1)
# [34] = target: HIV-1 Env of pseudovirus X1254_c3 (HIV-1)
# [35] = target: HIV-1 Env of pseudovirus ZM197M.PB7 (HIV-1)
# [36] = target: HIV-1 Env of pseudovirus ZM53M.PB12 (HIV-1)
substance,measurement,setting,value
NIH 45-46 (antibody),"IC50, titer in TZM.bl cells",[1],0.01 µg/mL
same,"IC80, titer in TZM.bl cells",[1],0.03 µg/mL
same,neutralization IC50,[2],0.09 µg/mL
same,neutralization IC80,[2],0.38 µg/mL
same,neutralization IC50,[3],0.02 µg/mL
same,neutralization IC80,[3],0.07 µg/mL
same,"IC50, titer in TZM.bl cells",[4],0.1 µg/mL
same,"IC80, titer in TZM.bl cells",[4],0.1 µg/mL
same,neutralization IC50,[5],> 50 µg/mL
same,neutralization IC80,[5],> 50 µg/mL
same,"IC50, titer in TZM.bl cells",[6],> 30 µg/mL
same,"IC80, titer in TZM.bl cells",[6],> 30 µg/mL
same,neutralization IC50,[7],0.11 µg/mL
same,neutralization IC80,[7],0.11 µg/mL
same,"IC50, titer in TZM.bl cells",[8],> 50 µg/mL
same,"IC80, titer in TZM.bl cells",[8],> 50 µg/mL
same,"IC50, titer in TZM.bl cells",[9],0.02 µg/mL
same,"IC80, titer in TZM.bl cells",[9],0.08 µg/mL
same,"IC50, titer in TZM.bl cells",[10],0.03 µg/mL
same,"IC80, titer in TZM.bl cells",[10],0.13 µg/mL
same,"IC50, titer in TZM.bl cells",[11],0.02 µg/mL
same,"IC80, titer in TZM.bl cells",[11],0.07 µg/mL
same,neutralization IC50,[12],0.14 µg/mL
same,neutralization IC80,[12],0.63 µg/mL
same,"IC50, titer in TZM.bl cells",[13],> 50 µg/mL
same,"IC80, titer in TZM.bl cells",[13],> 50 µg/mL
same,neutralization IC50,[14],0.42 µg/mL
same,neutralization IC80,[14],1.49 µg/mL
same,neutralization IC50,[15],0.01 µg/mL
same,neutralization IC80,[15],0.03 µg/mL
same,"IC50, titer in TZM.bl cells",[16],0.87 µg/mL
same,"IC80, titer in TZM.bl cells",[16],6.37 µg/mL
same,"IC50, titer in TZM.bl cells",[17],0.06 µg/mL
same,"IC80, titer in TZM.bl cells",[17],0.38 µg/mL
same,"IC50, titer in TZM.bl cells",[18],0.18 µg/mL
same,"IC80, titer in TZM.bl cells",[18],10 µg/mL
same,neutralization IC50,[19],0.11 µg/mL
same,neutralization IC80,[19],0.33 µg/mL
same,neutralization IC50,[20],0.22 µg/mL
same,neutralization IC80,[20],0.97 µg/mL
same,neutralization IC50,[21],> 30 µg/mL
same,neutralization IC80,[21],> 30 µg/mL
same,neutralization IC50,[22],> 50 µg/mL
same,neutralization IC80,[22],> 50 µg/mL
same,neutralization IC50,[23],0.02 µg/mL
same,neutralization IC80,[23],0.06 µg/mL
same,"IC50, titer in TZM.bl cells",[24],0.06 µg/mL
same,"IC80, titer in TZM.bl cells",[24],0.26 µg/mL
same,neutralization IC50,[25],0.14 µg/mL
same,neutralization IC80,[25],0.6 µg/mL
same,"IC50, titer in TZM.bl cells",[26],0.04 µg/mL
same,"IC80, titer in TZM.bl cells",[26],0.44 µg/mL
same,neutralization IC50,[27],0.003 µg/mL
same,neutralization IC80,[27],0.01 µg/mL
same,neutralization IC50,[28],0.01 µg/mL
same,neutralization IC80,[28],0.07 µg/mL
same,"IC50, titer in TZM.bl cells",[29],> 30 µg/mL
same,"IC80, titer in TZM.bl cells",[29],> 30 µg/mL
same,"IC50, titer in TZM.bl cells",[30],> 30 µg/mL
same,"IC80, titer in TZM.bl cells",[30],> 30 µg/mL
same,neutralization IC50,[31],1.59 µg/mL
same,neutralization IC80,[31],6.02 µg/mL
same,neutralization IC50,[32],0.01 µg/mL
same,neutralization IC80,[32],0.08 µg/mL
same,"IC50, titer in TZM.bl cells",[33],0.04 µg/mL
same,"IC80, titer in TZM.bl cells",[33],0.16 µg/mL
same,"IC50, titer in TZM.bl cells",[34],0.08 µg/mL
same,"IC80, titer in TZM.bl cells",[34],0.08 µg/mL
same,neutralization IC50,[35],0.14 µg/mL
same,neutralization IC80,[35],0.64 µg/mL
same,neutralization IC50,[36],0.65 µg/mL
same,neutralization IC80,[36],0.65 µg/mL
